From PMC6826516
Each block holds one binder with its values, some of them ahead of it.

Key:
[1] = target: T1, LgBiT-TEAD1-Myc (TEAD1 aa 194-411), mutant, P28347-1; assay: NanoBiT assay (split-luciferase biosensor) in lysates of transfected HEK293T cells; settings: chain shown with the change; 48 h after transfection; equal amounts of each biosensor plasmid; parent: est. 1300; read off a plot
T1 chain: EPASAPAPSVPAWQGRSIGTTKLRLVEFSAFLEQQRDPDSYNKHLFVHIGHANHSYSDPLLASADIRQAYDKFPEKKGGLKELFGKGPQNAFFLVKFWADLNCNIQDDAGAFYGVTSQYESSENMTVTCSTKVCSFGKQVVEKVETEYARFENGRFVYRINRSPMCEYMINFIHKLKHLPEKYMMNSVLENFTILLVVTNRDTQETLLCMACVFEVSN

[2] = target: T2, LgBiT-TEAD-His fusion protein (TEAD1 aa 194-411), mutant, P28347-1; assay: NanoBiT assay (split-luciferase biosensor) with purified His-tagged fusion proteins in vitro; settings: chain shown with the change; 100 ng of each construct; mixed and incubated for 5 min before substrate; parent: est. 59; read off a plot
T2 chain: T1 chain

response (fold over LgBiT-TEAD1 alone) [1]: 19
B1: m5; m2 TAZ:W43A; TAZ:K46A; TAZ:L48A; TAZ:S51A; TAZ:F52A; TAZ:F53A; TEAD1:E255A; TEAD1:V257A; TEAD1:I262A (protein)
chain: PGQQVIHVTQDLDTDLEALFNSVMNPKPSSARKAIAPEAAAKEPDSGSHSRQSSTDSSGGHPGPRLAGGAQHVRSHSSPASLQLGTGAGAAGSPAQQHAHLRQQSYD

response (fold over LgBiT-TEAD1 alone) [2]: 12
B2: m17; m14 TAZ:W43A; TAZ:K46A; TAZ:L48A; TAZ:S51A; TAZ:F52A; TAZ:F53A; TEAD1:E255A; TEAD1:V257A; TEAD1:I262A (protein)
chain: B1 chain
